These results are taken from patent US20180280525A1 (published 2018).

Assay [1] addresses T1, human MT1-MMP hemopexin domain (human, UniProt P50281 319-511).
T1 construct: range 319-511; Secreted from HEK293 cells as soluble N-terminally His6-tagged protein; also called MT1-MMP hemopexin-like repeats; MMP14
Put plainly: FP competition, human MT1-MMP hemopexin domain; tracer not given.

Assay [2] has as its target T1, human MT1-MMP hemopexin domain. Put plainly: FP competition, tracer A-(17-69-07)-A-Sar6-K(Fluorescein).
Assay [3] shares this target. Put plainly: FP competition, tracer A-(17-69-12)-A-Sar6-K(Fluorescein).
Assay [4] has the same target. Kind of assay: FP direct binding, fluoresceinated peptide titrated with hemopexin domain.
Assay [5] shares this target. Put plainly: FP competition, tracer A-(17-69-07)-A-Sar6-K(Fluorescein). The source holds these as a separate data set.
Assay [6] shares this target. Put plainly: FP competition, human MT1-MMP hemopexin domain; method not given.
Assay [7] shares this target. Put plainly: FP competition, human MT1-MMP hemopexin domain; tracer not given. This is another data set of the same source.
The target of assay [8] is T2, dog MT1-MMP hemopexin domain (dog, UniProt A0A8I3MND9 318-511).
T2 construct: domain: hemopexin domain
Kind of assay: FP competition, dog MT1-MMP hemopexin domain. As to the method: Subsequently, the non-fluorescent competitor bicyclic peptide (usually just the bicycle core sequence) is titrated, such that it displaces the fluorescent tracer from the target protein. The displacement of the tracer is measured and associated with a drop in fluorescence polarisation. The drop in fluorescence polarisation is proportional to the fraction of target protein bound with the non-fluorescent titrant, and thus is a measure of the affinity of titrant to target protein.

The target in assay [9] is T1, human MT1-MMP hemopexin domain. Put plainly: FP competition, Human/cyno MT1-MMP hemopexin domain.
The target is the same in assay [10]. Put plainly: FP competition, human MT1-MMP hemopexin domain (n = 3; footnote e).
Assay [11] has the same target. Kind of assay: FP competition, human MT1-MMP hemopexin domain; tracer not given. This is another data set of the same source.
The target is the same in assay [12]. The description is as above. This is another data set of the same source.

In general, Kd refers to the concentration at which binding is half-saturated. A low value points to tighter binding.

Numbered stars: 1 amine (or outer) side, 2 acyl side, 3 side chain; on linkers, the order of the positions; unused ones are H or OH. Bridge positions count the residues as written; N and C are the ends. Square brackets hold non-standard residues; d marks the D form. Ends that are not written are not given here. * marks the point of attachment. DOTA = O=C(O)CN1CCN(CC(=O)O)CCN(CC(=O)*)CCN(CC(=O)O)CC1; fluorescein = fluorescein label on the Lys side chain; Phe(4-Br) = N[C@@H](Cc1ccc(Br)cc1)C(=O)O; 1Nal = N[C@@H](Cc1cccc2ccccc12)C(=O)O; TBMB = c1c(C[*:1])cc(C[*:3])cc1C[*:2]; Tle = CC(C)(C)[C@H](N)C(=O)O; Sar = CNCC(=O)O

B1: 17-69-07-N252 (peptide)
chain: Ac-C[dA]NE[1Nal][dA]CEDF[Phe(4-Br)]D[Tle]C
modifications: linker 1-7-14 via TBMB; not fully specified (C-terminus); printed as Ac-(17-69-07) D-Ala1 1Nal4 D-Ala5 4BrPhe9 tBuGly11
Molecule B1 came in with a Kd in [1] of 0.8 nM.

In the case of ACFGEFGCEDFYDICA (linker 2-8-15 via TBMB; not fully specified (C-terminus), also called A-(17-69-02)-A) [17-69-02-N001], the affinity in assay [2], expressed as Kd, was 191 nM.

Consider ACVNEFGCEDFYDICA (linker 2-8-15 via TBMB; not fully specified (C-terminus), also called A-(17-69-03)-A) [17-69-03-N001], for which the Kd in [2] turned out to be 16.7 nM.

In the case of ACYNEFGCEDFYDICA (linker 2-8-15 via TBMB; not fully specified (C-terminus), also called A-(17-69-07)-A) [17-69-07-N001], the Kd in assay [3] came out at 1.65 nM.

B2: 17-69-12-N005 (peptide)
peptide: ACMNQFGCEDFYDICA[Sar][Sar][Sar][Sar][Sar][Sar]K(fluorescein)
modifications: linker 2-8-15 via TBMB; not fully specified (C-terminus)
notes: also called A-(17-69-12)-A-Sar6-K(Fl); A-(17-69-12)-A-Sar6-K(Fluorescein)
With B2, in [4], binding was put at a Kd of 3.1 nM.

B3: 17-69-07-N040 (peptide)
peptide: ACYNEFGCEDFYDICA[Sar][Sar][Sar][Sar][Sar][Sar]K(fluorescein)
modifications: linker 2-8-15 via TBMB; not fully specified (C-terminus)
notes: also called A-(17-69-07)-A-Sar6-K(Fl); A-(17-69-07)-A-Sar6-K(Fluorescein)
Consider B3, for which the Kd in assay [4] stood at 0.52 nM. In assay [5], ACMNQFGCEDFYDICA (linker 2-8-15 via TBMB; not fully specified (C-terminus), also called A-(17-69-12)-A) [17-69-12-N003] displayed a Kd of 3.7 nM.

B4: 17-69-07-N248 (peptide)
chain: {DOTA}-AC[dA]NE[1Nal][dA]CEDF[Phe(4-Br)]D[Tle]C
modifications: linker 2-8-15 via TBMB; not fully specified (C-terminus); also: 177Lu chelated in DOTA for biodistribution study
B4 showed a Kd in [6] of 0.5 nM.

B5: 17-69-07-N147 (peptide)
peptide: {DOTA}-ACYNEFGCEDFYDIC
modifications: linker 2-8-15 via TBMB; not fully specified (C-terminus); also: DOTA loaded with cold 175Lu
notes: also called DOTA[Lu]-A-(17-69-07)
As for B5, in assay [6], the Kd was 0.95 nM.

B6: 17-69-07-N144 (peptide)
peptide: {DOTA}-ACYNEFGCEDFYDIC
modifications: linker 2-8-15 via TBMB; not fully specified (C-terminus); also: DOTA loaded with 177Lu
notes: Loaded with 177Lu for the biodistribution study; also called DOTA-A-(17-69-07)
B6 had a Kd in assay [6] of 0.5 nM.

B7: 17-69-N004 (peptide)
peptide: ACKNRGFGCEDFYDICA[Sar][Sar][Sar][Sar][Sar][Sar]K(fluorescein)
modifications: linker 2-9-16 via TBMB; not fully specified (C-terminus)
notes: also called A-(17-69)-A-Sar6-K(Fl); A-(17-69)-A-Sar6-K(Fluorescein)
B7: in assay [4], the Kd came out at 692 nM.

In the case of Ac-CYNEYGCEDFYDIC (linker 1-7-14 via TBMB; not fully specified (C-terminus), also called Ac-(17-69-07) Tyr4) [17-69-07-N057], in [7], the affinity, expressed as Kd, was 1.78 nM.

In turn, Ac-CYNEWGCEDFYDIC (linker 1-7-14 via TBMB; not fully specified (C-terminus), also called Ac-(17-69-07) Trp4) [17-69-44-N002] showed a Kd in assay [7] of 0.75 nM.

B8: 17-69-07-N219 (peptide)
peptide: GXACYNEFGCEDFYDIC
modifications: not fully specified; Sar x10 in the spacer; 3 Cys cyclised with TBMB
notes: also called G-Sar10-A-(17-69-07) (non-stabilised with spacer)
As for B8, the Kd is 0.9 nM in assay [8], 0.82 nM in [9], 0.82 nM in [10] and 0.82 nM in assay [11]. Consider Ac-CYNEF[dR]CEDFYDIC (linker 1-7-14 via TBMB; not fully specified (C-terminus)) [17-69-07-N120], for which, in assay [12], binding was put at a Kd of 4.24 nM.
